Data as given in patent publication US20130123349A1 (US Dept. of Health and Human Services, published 2013).

Columns and labels:
[1] = target: T1, soluble collagen type I (pepsin-digested, non-fibrillar, triple helical; BD Biosciences) (human, UniProt P02452 179-1192; P08123 91-1104); assay: SPR at 15-40 °C, van't Hoff analysis, Aegyptin over immobilized collagen type I; value (±SE)
T1 construct: also called collagen I; monomeric type I collagen

[2] = target: T1, soluble collagen type I …; assay: SPR, Aegyptin over immobilized soluble collagen type I, 180 s at 30 µl/min, two-state model; Ka1
[3] = target: T2, heat-denatured soluble collagen type I (90 min at 98 °C) (human, UniProt P02452 179-1192; P08123 91-1104); assay: SPR, Aegyptin over immobilized heat-denatured collagen type I, two-state model; Ka1
T2 construct: also called Collagen denatured; heat-denatured collagen
T2 sequence (P02452 179-1192, chain 1 of 2): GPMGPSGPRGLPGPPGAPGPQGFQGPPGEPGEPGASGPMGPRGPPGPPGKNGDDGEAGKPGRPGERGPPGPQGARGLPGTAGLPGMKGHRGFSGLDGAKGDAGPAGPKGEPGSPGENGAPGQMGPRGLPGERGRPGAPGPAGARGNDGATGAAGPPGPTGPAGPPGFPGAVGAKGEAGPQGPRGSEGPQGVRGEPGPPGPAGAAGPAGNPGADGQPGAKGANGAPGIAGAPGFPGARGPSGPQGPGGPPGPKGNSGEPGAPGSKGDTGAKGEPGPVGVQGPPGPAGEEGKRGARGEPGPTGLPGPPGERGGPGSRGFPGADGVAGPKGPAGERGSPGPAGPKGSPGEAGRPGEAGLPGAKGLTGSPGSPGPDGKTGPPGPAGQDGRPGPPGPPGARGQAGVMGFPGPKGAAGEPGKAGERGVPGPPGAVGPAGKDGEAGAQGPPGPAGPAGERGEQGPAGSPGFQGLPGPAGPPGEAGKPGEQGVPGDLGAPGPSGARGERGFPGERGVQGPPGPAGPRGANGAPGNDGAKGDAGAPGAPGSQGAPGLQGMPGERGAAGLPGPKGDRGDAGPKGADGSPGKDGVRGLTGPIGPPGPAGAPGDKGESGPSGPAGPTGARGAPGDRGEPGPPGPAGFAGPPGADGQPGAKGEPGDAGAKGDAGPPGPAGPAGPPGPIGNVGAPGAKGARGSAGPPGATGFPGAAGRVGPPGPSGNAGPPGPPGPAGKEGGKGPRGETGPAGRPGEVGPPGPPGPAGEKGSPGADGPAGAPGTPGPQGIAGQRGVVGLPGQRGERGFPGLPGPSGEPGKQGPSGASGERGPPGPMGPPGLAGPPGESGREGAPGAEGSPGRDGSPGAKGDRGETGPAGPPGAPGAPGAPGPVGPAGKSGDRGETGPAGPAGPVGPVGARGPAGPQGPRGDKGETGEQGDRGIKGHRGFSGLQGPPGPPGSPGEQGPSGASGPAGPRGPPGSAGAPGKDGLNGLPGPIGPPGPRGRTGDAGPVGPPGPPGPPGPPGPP
T2 sequence (P08123 91-1104, chain 2 of 2): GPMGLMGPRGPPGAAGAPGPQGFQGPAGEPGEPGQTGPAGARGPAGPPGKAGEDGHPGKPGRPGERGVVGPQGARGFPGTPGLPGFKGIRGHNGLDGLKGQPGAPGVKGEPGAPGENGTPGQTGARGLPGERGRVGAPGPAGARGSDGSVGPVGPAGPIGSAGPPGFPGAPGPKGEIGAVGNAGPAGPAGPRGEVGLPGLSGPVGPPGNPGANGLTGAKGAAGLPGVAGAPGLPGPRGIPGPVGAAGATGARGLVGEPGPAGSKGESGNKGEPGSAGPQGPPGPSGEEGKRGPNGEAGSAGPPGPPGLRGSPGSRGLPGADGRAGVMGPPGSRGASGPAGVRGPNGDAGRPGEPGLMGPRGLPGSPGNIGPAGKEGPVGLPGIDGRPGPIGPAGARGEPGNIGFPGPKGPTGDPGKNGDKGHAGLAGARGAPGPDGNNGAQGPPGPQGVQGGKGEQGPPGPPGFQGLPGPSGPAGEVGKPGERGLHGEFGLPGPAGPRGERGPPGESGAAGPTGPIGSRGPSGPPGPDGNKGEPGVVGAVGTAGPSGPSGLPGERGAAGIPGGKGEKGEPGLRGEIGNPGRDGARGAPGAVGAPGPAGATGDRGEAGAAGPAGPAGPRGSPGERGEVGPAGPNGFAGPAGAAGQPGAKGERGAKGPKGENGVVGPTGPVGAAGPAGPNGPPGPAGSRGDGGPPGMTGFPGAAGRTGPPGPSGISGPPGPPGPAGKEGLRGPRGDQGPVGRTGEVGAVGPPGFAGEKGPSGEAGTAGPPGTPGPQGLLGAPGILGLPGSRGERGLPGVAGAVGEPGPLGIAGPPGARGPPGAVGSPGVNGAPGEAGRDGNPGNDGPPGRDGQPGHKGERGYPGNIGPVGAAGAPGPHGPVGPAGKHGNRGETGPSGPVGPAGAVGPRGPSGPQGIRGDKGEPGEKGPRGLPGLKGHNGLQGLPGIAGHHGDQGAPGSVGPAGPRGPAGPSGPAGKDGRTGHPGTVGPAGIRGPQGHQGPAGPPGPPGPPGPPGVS

[4] = target: T3, soluble collagen type III (pepsin-digested, non-fibrillar; BD Biosciences) (human, UniProt P02461 168-1196); assay: ELISA, inhibition of vWf (3 nM) binding to coated soluble collagen type III; competitor vWf
T3 construct: also called collagen III; soluble collagen III
T3 sequence: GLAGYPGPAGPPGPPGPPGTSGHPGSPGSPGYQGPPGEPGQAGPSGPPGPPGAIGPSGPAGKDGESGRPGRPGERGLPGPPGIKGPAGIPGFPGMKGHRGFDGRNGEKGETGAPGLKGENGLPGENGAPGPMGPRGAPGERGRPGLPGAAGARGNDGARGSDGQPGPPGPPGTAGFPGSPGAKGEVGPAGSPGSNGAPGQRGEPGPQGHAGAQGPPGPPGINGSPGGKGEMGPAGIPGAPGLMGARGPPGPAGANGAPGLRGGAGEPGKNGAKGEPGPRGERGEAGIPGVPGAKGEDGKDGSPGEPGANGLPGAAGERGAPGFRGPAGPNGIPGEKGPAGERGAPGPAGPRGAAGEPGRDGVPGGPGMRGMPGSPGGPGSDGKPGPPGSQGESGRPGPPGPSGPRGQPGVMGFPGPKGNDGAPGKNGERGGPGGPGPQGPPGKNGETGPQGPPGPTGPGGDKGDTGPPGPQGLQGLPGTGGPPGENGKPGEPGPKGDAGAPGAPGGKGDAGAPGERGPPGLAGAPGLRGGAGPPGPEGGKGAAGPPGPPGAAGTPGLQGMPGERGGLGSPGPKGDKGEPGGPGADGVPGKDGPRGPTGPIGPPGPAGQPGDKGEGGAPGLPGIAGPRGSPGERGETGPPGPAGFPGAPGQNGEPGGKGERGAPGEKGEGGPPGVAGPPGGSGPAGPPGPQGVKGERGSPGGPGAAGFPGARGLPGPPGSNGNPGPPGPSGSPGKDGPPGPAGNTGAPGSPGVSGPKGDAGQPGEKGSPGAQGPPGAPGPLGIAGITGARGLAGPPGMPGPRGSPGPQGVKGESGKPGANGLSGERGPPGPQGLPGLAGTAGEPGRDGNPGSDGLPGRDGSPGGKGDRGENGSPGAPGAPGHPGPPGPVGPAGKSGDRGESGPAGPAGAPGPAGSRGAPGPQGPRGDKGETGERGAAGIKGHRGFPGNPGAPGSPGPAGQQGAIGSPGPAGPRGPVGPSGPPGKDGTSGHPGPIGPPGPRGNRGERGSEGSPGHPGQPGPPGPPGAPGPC

[5] = target: T1, soluble collagen type I …; assay: SPR, global two-state binding model, immobilized soluble collagen type I
[6] = target: T1, soluble collagen type I …; assay: SPR, C-terminus-2 (5 to 250 nM) over immobilized soluble collagen type I, two-state model
[7] = target: T1, soluble collagen type I …; assay: SPR, […]; concentration not given

T1 sequence (P02452 179-1192 limits assumed, chain 1 of 2): as the sequence (P02452 179-1192, chain 1 of 2) above
T1 sequence (P08123 91-1104 limits assumed, chain 2 of 2): as the sequence (P08123 91-1104, chain 2 of 2) above

B1: recombinant Aegyptin (other)
chain: RPMPEDEEPVAEGGDDDASGESEGEEETTDDAGGDGGEEENEGEEHAGDKDAGGEDTGKEENTGHDDAGEEDAGEEDAGEEDAGEEDAGEEDAEKEEGEKEDAGDDAGSDDGEEDSTGGDEGEDNAEDSKGSEKNDPADTYRQVVALLDKDTKVDHIQSEYLRSALNNDLQSEVRVPVVEAIGRIGDYSKIQGCFKSMGKDVKKVISEEEKKFKSCMSKKKSEYQCSEDSFAAAKSKLSPITSKIKSCVSSKGRHHHHHH
With B1 the “ΔS°” value [1] was 95 J/(K * mol), the kon [2] was 3.63e+06 M⁻¹ s⁻¹ and the kon [3] was 674000 M⁻¹ s⁻¹. The IC50 [4] was 0.05 µM.

B2: C-terminus-2 of Aegyptin (137 aa) (other)
chain: GGDEGEDNAEDSKGSEKNDPADTYRQVVALLDKDTKVDHIQSEYLRSALNNDLQSEVRVPVVEAIGRIGDYSKIQGCFKSMGKDVKKVISEEEKKFKSLMSKKKSEYQCSEDSFAAAKSKLSPITSKIKSCVSSKGR
notes: also called C-terminal-2; C-terminus 2 domain
With B2 the Kd [5] was 0.0609 µM and the Kd [6] was ~0.06 µM.

B3: C-terminus 1 of Aegyptin (113 aa) (other)
chain: RQVVALLDKDTKVDHIQSEYLRSALNNDLQSEVRVPVVEAIGRIGDYSKIQGCFKSMGKDVKKVISEEEKKFKSCMSKKKSEYQCSEDSFAAAKSKLSPITSKIKSCVSSKGR
B3: no binding [7].
